According to the RNAGym collection of RNA variant scans (doi:10.7554/elife.90254):

B1: LINE1-full (parent)
chain: UACGUAGGUGGUUUUCCCCUGAUAGUGCUAAGGGGGCCUGGAAGUUUGGACUGGGCAGAGCUCAACACAGCGUGGCAAAGUGGCUGUGGCUAGACUGCCUCUCUGGAUUCCUCGUCACUCAGCAGGGCAUCUCUGAGAGAAAUGCC

Variants of: B1
Assay: self-cleavage, relative activity (ratio to wild type); higher = more cleavage; in vitro, sequencing; the parent is a self-cleaving ribozyme

| Variant | self-cleavage |
| --- | --- |
| UACGUAGGUGGUUUUCCCCUGAUAGUGCUAAGGGGGCCUGGAAGUUUGGACUGGGCAGAGCUCAACACAGCGUGGCAAAGUGGCUGUGGCUAGACUGCCUCUCUGGAUUCCUCGUCACUCACCAGGGCAUCUCUGAGAGCAAUGCC | 1.71 |
| UACGUAGGUGGUUUUCCCCUGAUAAUGCUAAGGGGGCCUGGAAGUUUGGACUGGGCAGAGCUCAACACAGCGUGGCAAAGUGGCUGUGGCUAGACUGCCUCUCUGGAUUCCUCGUCACUCAGCAGGGCAUCUCUGAGAGAAUUGCC | 0.93 |
| UACGUAGGUGGUUUUCCCCUGAUAGAGCUAAGGGGGCCUGGAAGUUUGGACUGGGCAGAGCUCAACACAGCGUGGCAAAGUGGCUGUGGCUAGACUGCCUCUCUGGAUUCCUCGUCUCUCAGCAGGGCAUCUCUGAGAGAAAUGCC | 0.98 |
| UACGUAGGUGGUUCUCCCCUGAUAGUGCUAAGGGGGCCUAGAAGUUUGGACUGGGCAGAGCUCAACACAGCGUGGCAAAGUGGCUGUGGCUAGACUGCCUCUCUGGAUUCCUCGUCACUCAGCAGGGCAUCUCUGAGAGAAAUGCC | 0.85 |
| UACGCAGGUGGUUUUCCCCUGAUAGUGCUAAGGGGGCCUGGAAGUUUGGACUGGGCAGAGCUCAACACAGCGUGGCAAAGUGGCUGUGGCUAGACUGCCUCUCUGGAUUCCUCGUCACUCAGCAGGGCAUCUCUGAGAGAAAUACC | 1.39 |
| UACGUAGGUGGUUUUCCCCUGAUAGUGCUAAGGGGGCCUGGAAGUUUGGACUGGGCAGAGCUCAACACAGCGUGGCAAAGUGGCUGUGGCUAGACUGCCUCUCUGGGUUCCACGUCACUCAGCAGGGCAUCUCUGAGAGAAAUGCC | 1.45 |
| UGCGUAGGUGGUUUUCCCCUGAUAGUGCUAAGGGGGCCUGGAAGUUUGGACUGGGCAGAGCUCAACACAGCGUGGCAAAGUGGCUGUGGCUAGGCUGCCUCUCUGGAUUCCUCGUCACUCAGCAGGGCAUCUCUGAGAGAAAUGCC | 0.25 |
| UACGUAGGUGGUUUUCCCCUGAUAGUGCUAAGAGGGCCUGGAAGUUUGGACUGGGCAGAGCUCAACACAGCGUGGCAAAGUGGCUGUGGCAAGACUGCCUCUCUGGAUUCCUCGUCACUCAGCAGGGCAUCUCUGAGAGAAAUGCC | 0.59 |
| UACGUAGGUGGUUUUCCCCUGAUAGUGCUAAGGGGGCCUGGAAGUUUGGACUGGGCAGAGCUCAACACAGCGUGGCAAAGUGGCUGUGGCUAGACUGCCUCUCUGGAUUCCCCGUCACUCAGCAGGGCAUCCCUGAGAGAAAUGCC | 1.28 |
| UACGUAGGUGGUUUUCCCCUGAUAGUGCUAAGGGGGCCUGGAAGUUUGGACUGGGCAGAGCUCAACACAGCGGGGCAAAGUGGCUGUGGCUAGACUGCCUCUCUGGAUUCCUCGUCACUCAGCUGGGCAUCUCUGAGAGAAAUGCC | 1.36 |
| UACGUAGGUGGUUUUCCCCUGAUAGUGCUAAGGGGGCCUGGAGGUUUGGACUGGGCAGAGCUCAACACAGCGUGGCAAAGUGGCUGUGGCUAGACUGCCUCUCUGGAUUCCUCGUCACUCAGCAGGGCAUCUCGGAGAGAAAUGCC | 0.97 |
| UACGAAGGUGGUUUUCCCCUGAUAGUGCUAAGGGGGCCUGGAAGUUUGAACUGGGCAGAGCUCAACACAGCGUGGCAAAGUGGCUGUGGCUAGACUGCCUCUCUGGAUUCCUCGUCACUCAGCAGGGCAUCUCUGAGAGAAAUGCC | 0.5 |
| UACGUAGGUGGUUUUCCCCAGAUAGUGCUAAGGGGGCCUGGAAGUUUGGACUGGGCAGAGCUCAACACAGCGUGGCAAAGUGGCUGUGGCUAGACUGCCUCUCUGGAUUCCUCGUCACUCAGCAGGGCAUCACUGAGAGAAAUGCC | 1.61 |
| UACGUAGGUGGUUUUCCCCUGAUAGUGCUAAGGGGGCCUGGAAGUUUGGACUGGGCAGAGCUCGACACAGCGUGGCAAAGUGGCUGUGGCUAGACUGCCUCUCUGGAUUCCUCGUCACUCAGCAGGGCAUCUCUGAGAGGAAUGCC | 0.26 |
| UACGUAGGUGGUUUUCCCCUGAUAGUGCUAAGGGGGCCUGGAAGUUUGGACUGGGCAGAGCUCAACACAGCGUGGCAAGGUGGCUGUGGCUAGACUGCCUCUCUGGAUUCCUCGUCACUCAGCAGGGCAUCUCUGAGAGAAACGCC | 1.47 |
| UACGUAGGUGGUUUUCCCCUGAUAGUGCUAAGGGGGCCUGGAAGUUUGGACUGGGCAGAGCUCAACACAGCGAGGCAAAGUGGCUGUGGCUAGACUGCCUCUCUGGAUUCCUUGUCACUCAGCAGGGCAUCUCUGAGAGAAAUGCC | 1.41 |
| UACGUAGGUGGUUUUCCCCUGAUAGUGCUAUGGGGGCCUGGAAGUUUGGACUGGGCAGAGCUCAACACAGCGUGGCAAAGUGGCUGUGGCUAGACUGCCUCUCUGGAUUCCUCGACACUCAGCAGGGCAUCUCUGAGAGAAAUGCC | 1.08 |
| UACGUAGGUGGUUUUCCCCUGAUAGUGCUAAGGGGGCCUGGAAGUCUGGACUGGGCAGAGCUCAACACAGCGUGGCAAAGUGGCUGUGGCUAGACUGCCACUCUGGAUUCCUCGUCACUCAGCAGGGCAUCUCUGAGAGAAAUGCC | 1.22 |
| UACGUAGGUGGUUUUCCCCUGAUAGUGCUAGGGGGGCCUGGAAGUUUGGGCUGGGCAGAGCUCAACACAGCGUGGCAAAGUGGCUGUGGCUAGACUGCCUCUCUGGAUUCCUCGUCACUCAGCAGGGCAUCUCUGAGAGAAAUGCC | 1.42 |
